In article PMC2953525, “Subtle Alterations in PCNA-Partner Interactions Severely Impair DNA Replication and Repair” (PLoS Biology, 2010):

Key:
Ung1 PIP peptide = experiment: SPR analysis of PCNA binding to PIP peptide; design: species or system yeast; conditions: PCNA immobilized, peptide 5-5,000 nM, ProteOn XPR36; read-out: Binding affinity for Ung1 PIP peptide (SPR)
From the text: To quantify differences in binding affinities of the PCNA mutants relative to the WT, we characterized four PCNA mutants with increased affinity for PIP peptides derived from Rad30, Pol32, Msh6, and Ung1 partners using SPR. These mutants were overexpressed in E. coli, purified by affinity chromatography, and immobilized on an SPR sensor chip for binding characterization. SPR binding analysis enabled direct and sensitive measurement of interaction affinities relative to the Y2H system and indicated an up to 8-fold increase in binding affinity for the different PIP peptides, relative to WT PCNA (Table 1). Such analysis allowed the detection of a significant decrease in the Rad30 PIP peptide dissociation rate in the Pol30-Rad30E9p mutant relative to the WT, indicating a ∼9-fold increase in the lifetime of the PCNA-Rad30 complex (see Table 1). Collectively the ELISA, Y2H, and SPR assays validated and quantified the increase in mutant PCNA binding affinities, relative to WT PCNA.
Protein interaction assays were carried out using the ProteOn XPR36 (Bio-Rad) instrument. WT or PCNA mutants (0.4 to 5.2 fmol) were immobilized on the surface of a GLM sensor chip by a carbodiimide-activated succinimide-coupling method, as specified by the manufacturer. All SPR experiments were performed by flowing 150 µl of the target peptide at a flow rate of 30 µl/min onto the PCNA-bound chip. Different concentrations (5–5,000 nM) of PIP peptides (Table 1) were injected over the PCNA chip, and binding parameters were determined using ProteOn XPR36 software (Bio-Rad). The ligand (PCNA) and analyte (peptide) buffers were PBST and 150 mM NaCl, 1 mM EDTA, 0.01% Tween-80, 30 mM Hepes, pH 7.5, respectively.

pol30-Rad27L2 = molecular target: T1, pol30-Rad27L2 (yeast, UniProt P15873 1-258, IDCL DIDADFLKIEEL to D––VDTLKITEL); experiment: two-hybrid; quantitative Y2H: generation time of the YRG2 strains in liquid SC-Leu-Trp-His, given relative to cells expressing WT PCNA; average of at least 3 experiments; conditions: partners not purified
T1 construct: PCNA (POL30), yeast; two residues after the first aspartic acid of the IDCL are deleted; source: yeast two-hybrid fusion (pAD-GAL4, strain YRG2)
T1 sequence: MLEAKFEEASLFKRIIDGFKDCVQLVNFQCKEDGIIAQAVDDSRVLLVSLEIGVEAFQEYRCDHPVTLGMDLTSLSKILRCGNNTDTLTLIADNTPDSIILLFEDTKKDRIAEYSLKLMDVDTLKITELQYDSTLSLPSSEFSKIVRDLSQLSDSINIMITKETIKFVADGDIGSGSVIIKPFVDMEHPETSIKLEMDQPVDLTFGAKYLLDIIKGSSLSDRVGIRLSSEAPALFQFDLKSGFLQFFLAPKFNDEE

pol30-Rad30E2 = molecular target: T2, pol30-Rad30E2 (yeast, UniProt P15873 1-258, IDCL DIDADFLKIEEL to DDDWDFLKILEL); experiment: as above; conditions: partners not purified
T2 construct: PCNA (POL30), yeast; source: yeast two-hybrid fusion (pAD-GAL4, strain YRG2)
T2 sequence: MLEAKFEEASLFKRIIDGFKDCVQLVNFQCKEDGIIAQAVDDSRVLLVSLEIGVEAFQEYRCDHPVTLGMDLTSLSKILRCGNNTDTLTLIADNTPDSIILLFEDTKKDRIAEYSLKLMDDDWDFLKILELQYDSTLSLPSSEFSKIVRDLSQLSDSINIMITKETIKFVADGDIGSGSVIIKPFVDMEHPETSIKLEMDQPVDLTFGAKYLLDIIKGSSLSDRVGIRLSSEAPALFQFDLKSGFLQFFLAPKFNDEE

pol30-Rad30E9 = molecular target: T3, pol30-Rad30E9 (yeast, UniProt P15873 1-258, IDCL DIDADFLKIEEL to DNDWDFLKIDEL); experiment: as above; conditions: partners not purified
T3 construct: PCNA (POL30), yeast; also called Pol30-Rad30E9p; source: yeast two-hybrid fusion (pAD-GAL4, strain YRG2)
T3 sequence: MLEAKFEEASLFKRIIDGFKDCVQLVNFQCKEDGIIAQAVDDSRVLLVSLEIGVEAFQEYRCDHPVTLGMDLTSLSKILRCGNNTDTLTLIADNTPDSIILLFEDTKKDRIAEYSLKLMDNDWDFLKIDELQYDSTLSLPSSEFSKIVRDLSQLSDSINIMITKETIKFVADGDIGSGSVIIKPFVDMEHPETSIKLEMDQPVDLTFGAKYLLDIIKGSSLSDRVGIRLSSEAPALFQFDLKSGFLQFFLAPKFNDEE

For “POL30: wild-type yeast PCNA (POL30), IDCL sequence DIDADFLKIEEL”, the Kd (Ung1 PIP peptide) was 1200 nM.

B1: Rad27 (natural protein, yeast, UniProt P26793 1-382, looked up)
chain: MGIKGLNAIISEHVPSAIRKSDIKSFFGRKVAIDASMSLYQFLIAVRQQDGGQLTNEAGETTSHLMGMFYRTLRMIDNGIKPCYVFDGKPPDLKSHELTKRSSRRVETEKKLAEATTELEKMKQERRLVKVSKEHNEEAQKLLGLMGIPYIIAPTEAEAQCAELAKKGKVYAAASEDMDTLCYRTPFLLRHLTFSEAKKEPIHEIDTELVLRGLDLTIEQFVDLCIMLGCDYCESIRGVGPVTALKLIKTHGSIEKIVEFIESGESNNTKWKIPEDWPYKQARMLFLDPEVIDGNEINLKWSPPKEKELIEYLCDDKKFSEERVKSGISRLKKGLKSGIQGRLDGFFQVVPKTKEQLAAAAKRAQENKKLNKNKNKVTKGRR
notes: Rad27 (endonuclease), yeast; also called pBD-Rad27; source: yeast two-hybrid fusion (pBD-GAL4, strain YRG2)
With B1 the “fold change in affinity relative to WT PCNA (Y2H generation time)” value (pol30-Rad27L2) was 1.5 fold, the “fold change in affinity relative to WT PCNA (Y2H generation time)” value (pol30-Rad30E2) was 0.4 fold and the “fold change in affinity relative to WT PCNA (Y2H generation time)” value (pol30-Rad30E9) was 0.5 fold.
